Experimental data published in patent US20250368742A1 (D2M BIOTHERAPEUTICS, published 2025).
Like-named read-outs stand apart in the source and are kept apart here. Values belong to the binder of their own block, whether it stands above or below them.

Key:
[1] = molecular target: T1, MICB005-ECD-HISAvi (human, UniProt Q29980 24-309); assay: BLI (GatorPrime); antibody on anti-hIgG Fc probe, monomeric antigen in solution;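 note: binding kinetics of anti-MICA/B antibodies measured by biolayer interferometry, with dissociation followed for about 10 min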
T1 construct: Two sources under one name in the two kinetic assays; also called MICB005 polypeptide
T1 sequence: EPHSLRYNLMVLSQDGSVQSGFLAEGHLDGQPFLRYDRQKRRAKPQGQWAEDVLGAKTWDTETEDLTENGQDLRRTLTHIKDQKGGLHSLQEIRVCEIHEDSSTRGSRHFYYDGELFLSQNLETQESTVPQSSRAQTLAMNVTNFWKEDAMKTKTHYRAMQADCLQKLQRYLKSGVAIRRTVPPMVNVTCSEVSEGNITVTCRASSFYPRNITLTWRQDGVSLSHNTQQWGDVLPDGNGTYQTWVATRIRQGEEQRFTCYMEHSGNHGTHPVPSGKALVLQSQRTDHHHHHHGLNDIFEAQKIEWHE
Procedure: (§1) The binding kinetics of the antibodies were also measured using the GatorPrime BLI (Biolayer Interferometry) system (Gator Bio, USA). Specifically, the anti-MICA/B antibodies were loaded with HFC (Anti-hIgG Fc, Gator Bio, Cat #: 160003). […] The dissociation kinetics were monitored for approximately 10 minutes. The probes were regenerated between binding cycles with Regeneration Buffer (Gator Bio, Cat #: 120012). Binding kinetics were analyzed using software supplied by the manufacturer.

[2] = molecular target: T2, MICA004-ECD-HISAvi (human); assay: as above
T2 construct: also called MICA004 polypeptide
T2 chain: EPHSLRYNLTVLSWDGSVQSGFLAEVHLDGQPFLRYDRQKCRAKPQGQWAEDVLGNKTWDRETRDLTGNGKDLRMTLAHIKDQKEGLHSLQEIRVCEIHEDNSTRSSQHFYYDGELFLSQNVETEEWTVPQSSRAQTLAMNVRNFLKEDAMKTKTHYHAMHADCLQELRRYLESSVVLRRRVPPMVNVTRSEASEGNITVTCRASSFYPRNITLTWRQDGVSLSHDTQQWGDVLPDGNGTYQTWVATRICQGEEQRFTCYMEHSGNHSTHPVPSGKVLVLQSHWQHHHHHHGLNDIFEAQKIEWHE
Procedure: as §1

[3] = molecular target: T3, MICA008-ECD-HISAvi (human); assay: as above
T3 construct: Two sources under one name in the two kinetic assays; also called MICA008 polypeptide
T3 chain: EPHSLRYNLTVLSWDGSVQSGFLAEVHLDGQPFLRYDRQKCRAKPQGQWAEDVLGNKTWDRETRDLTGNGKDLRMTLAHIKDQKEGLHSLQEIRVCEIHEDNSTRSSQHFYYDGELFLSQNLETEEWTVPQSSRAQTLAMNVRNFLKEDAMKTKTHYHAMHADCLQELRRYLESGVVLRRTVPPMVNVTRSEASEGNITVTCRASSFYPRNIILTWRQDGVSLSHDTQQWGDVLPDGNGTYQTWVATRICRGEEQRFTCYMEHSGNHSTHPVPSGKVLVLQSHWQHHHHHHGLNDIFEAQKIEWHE
Procedure: as §1

[4] = molecular target: T4, MICA009Avi (human); assay: as above
T4 construct: extracellular domain
Procedure: as §1

[5] = molecular target: T1, MICB005-ECD-HISAvi; assay: SPR (Carterra); antibody captured by anti-human Fc, monomeric ECD antigen injected;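 for result: dissociation phase followed for about 10 min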
Procedure: (§2) The dissociation kinetics were monitored for approximately 10 minutes. The chip surface was regenerated between binding cycles with 10 mM glycine HCl, pH 1.7. Binding kinetics were analyzed using software supplied by the manufacturer.

[6] = molecular target: T2, MICA004-ECD-HISAvi; assay: as above
Procedure: as §2

[7] = molecular target: T5, MICA002-ECD-HISAvi (human, UniProt Q29983 24-308); assay: as above
T5 construct: also called MICA002 polypeptide
T5 chain: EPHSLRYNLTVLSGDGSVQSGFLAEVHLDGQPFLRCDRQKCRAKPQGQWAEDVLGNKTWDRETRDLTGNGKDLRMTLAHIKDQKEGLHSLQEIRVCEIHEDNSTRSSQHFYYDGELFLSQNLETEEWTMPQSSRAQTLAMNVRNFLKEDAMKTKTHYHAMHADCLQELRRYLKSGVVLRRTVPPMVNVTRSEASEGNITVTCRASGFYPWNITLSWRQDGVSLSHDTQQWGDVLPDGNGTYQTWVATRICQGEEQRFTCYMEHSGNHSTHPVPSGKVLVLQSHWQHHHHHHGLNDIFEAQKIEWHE
Procedure: as §2

[8] = molecular target: T3, MICA008-ECD-HISAvi; assay: as above
Procedure: as §2

[9] = molecular target: T6, human MICA002 on cells (human); assay: flow cytometry, CHO-MICA002 cells
T6 chain: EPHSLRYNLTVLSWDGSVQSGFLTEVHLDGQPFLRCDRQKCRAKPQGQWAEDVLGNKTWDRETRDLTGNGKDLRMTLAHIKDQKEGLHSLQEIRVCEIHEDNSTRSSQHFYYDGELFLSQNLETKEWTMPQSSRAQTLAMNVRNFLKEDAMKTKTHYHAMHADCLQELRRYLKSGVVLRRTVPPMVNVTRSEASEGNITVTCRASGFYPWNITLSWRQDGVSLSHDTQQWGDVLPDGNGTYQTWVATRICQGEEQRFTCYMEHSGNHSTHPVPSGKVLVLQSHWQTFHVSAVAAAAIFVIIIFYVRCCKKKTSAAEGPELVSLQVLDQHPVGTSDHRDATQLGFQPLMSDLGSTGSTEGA

[10] = molecular target: T6, human MICA002 on cells; assay: flow cytometry, CHO-MICA002 cells
Procedure: CHO-MICA002 cells were incubated with titrated anti-MICA/B antibodies and then APC-labeled anti-human Fc antibody. […] The antibody binding signals of APC (gMFI) to MICA/B were measured by flow cytometry.
(§3) After an incubation time of 30 minutes, the plate was centrifuged and cells were washed with PBS three times. […] After mixing for 30 minutes at room temperature, cells were washed with PBS twice. Fluorescent signal was detected and quantified by flow cytometry (Attune™ CytPix™, ThermoFisher) within the population of live cells (viability dye PI negative).

[11] = molecular target: T7, human MICA008 on cells (human); assay: flow cytometry, CHO-MICA008 cells
T7 construct: whole, on cells; also called CHO-MICA008; C1R-MICA008
Procedure: (§4) IgG1 is an isotype control (IgG). The antibody binding signals of APC (gMFI) to MICA/B were measured by flow cytometry.
as §3

[12] = molecular target: T8, human MICA004 on cells (human); assay: flow cytometry, CHO-MICA004 cells
T8 construct: whole, on cells; also called CHO-MICA004; C1R-MICA004
Procedure: as §4, §3

[13] = molecular target: T7, human MICA008 on cells; assay: flow cytometry, HeLa cells (MICA008)
Procedure: as §4, §3

[14] = molecular target: T9, Cynomolgus monkey MICA (cynoMICA) (Cynomolgus monkey (Macaca fascicularis)); assay: BLI (GatorPrime); antibody on anti-hIgG Fc probe, monomeric antigen in solution;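 note: binding kinetics of anti-MICA/B antibodies measured by biolayer interferometry, with dissociation followed for about 10 min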
T9 construct: also called cyno monkey MICA; cyno MIC protein
Procedure: as §1

[15] = molecular target: T5, MICA002-ECD-HISAvi; assay: as above
Procedure: as §1

[16] = molecular target: T10, human MICB005 on cells (human); assay: flow cytometry, CHO-MICB005 cells
T10 construct: whole, on cells; also called CHO-MICB005; C1R-MICB005
Procedure: as §4, §3

[17] = molecular target: T1, MICB005-ECD-HISAvi; assay: SPR (Carterra); antibody captured by anti-human Fc, monomeric ECD antigen injected; remark: listed apart in the source;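 for result: dissociation phase followed for about 10 min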
Procedure: as §2

[18] = molecular target: T2, MICA004-ECD-HISAvi; assay: as above
Procedure: as §2

[19] = molecular target: T5, MICA002-ECD-HISAvi; assay: as above
Procedure: as §2

[20] = molecular target: T3, MICA008-ECD-HISAvi; assay: as above
Procedure: as §2

[21] = molecular target: T6, human MICA002 on cells; assay: flow cytometry, CHO-MICA002 cells

B5: 6E1.1.12 (antibody, human IgG1, kappa, V domains shown)
VH: QGQMQQSGAELVKPGASVKLSCKTSGFTFSDNYISWLKQKPGQSLEWIAWIYAGTGGSSYNQKFRDKAQLTVDTSSRTAYMQLSSLTTEDSAIYYCARHDYYGTSGAWFAYWGRGTLVTVSA
VL: DVLMTQTPLSLPVSLGDQASISCRSSQHIVHSNENTYLEWYLQKPGQSPKLLIYKVSNRFSGVPDRFSGSGSGTDFTLKISRVEAEDLGVYYCFQGSHVPWTFGGGTKVEIKR
EC50 [10]: 0.882 µg/mL
EC50 [11]: 0.15 µg/mL
EC50 [12]: 0.239 µg/mL
EC50 [13]: 0.269 µg/mL
Kd [1]: 4.54 nM
Kd [4]: 3.94 nM
Kd [5]: 8.62 nM
EC50 [16]: 0.184 µg/mL

B6: D2M001-003 (antibody, V domains shown)
VH: QVQLVQSGAEVKKPGSSVKVSCKASGYAFHDYLIEWVRQAPGQGLEWIGGINPGSGSTNYAQKFQGRATLTADKSTSTAYMELSSLRSEDTAVYYCARLDGNYVGYWGQGTLVTVSS
VL: DIQMTQSPSSLSASVGDRVTITCRASGNIHNYLAWYQQKPGKSPKLLVYHAKTLQSGVPSRFSGSGSGTDYTLTISSLQPEDVATYYCQHFWSTPRTFGGGTKVEIK
notes: only the CDRs are tied to the name in the text; copies: 2 + 2
EC50 [21]: 3.59 µg/mL

B7: D2M001-004 (antibody, V domains shown)
VH: QVQLVQSGAEVKKPGSSVKVSCKASGYAFVDYLIEWVRQAPGQGLEWIGGVNPGSGSTNYAQKFQGRATLTADKSTSTAYMELSSLRSEDTAVYYCARLEGNYVGYWGQGTLVTVSS
VL: DIQMTQSPSSLSASVGDRVTITCRASGNIHNYLAWYQQKPGKSPKLLVYHAKTLQSGVPSRFSGSGSGTDYTLTISSLQPEDVATYYCQHFWSTPRTFGGGTKVEIK
notes: as for B6
EC50 [21]: 4.2 µg/mL

Other lines, results leading:

Kd [1]: 1.35 nM
Kd [2]: 1.16 nM
Kd [3]: 0.625 nM
Kd [4]: 0.716 nM
Kd [5]: 2.27 nM
Kd [6]: 6.92 nM
binding result [7]: no binding
Kd [8]: 0.846 nM
B1: B10G5 (antibody, human IgG1, kappa, V domains shown)
VH: EVQLEESGPGLVKPSQSLSLTCTVTGYSITSDYAWNWIRQFPGNKLEWMGYISYSGSTNYNPSLKSRISITRDTSKNQFFLQLNSVITEDTATYYCARGGTYFDYWGQGTTLTVSS
VL: DIVLTQTTSYLSVSLGGRVTIACKASAHINNWLAWYQQKPGNAPRLLISDATSLETGVPSRFSGSGSGKDYTLSITSLQTEDVATYYCQHYWSTPWTFGGGTKLEIKR
notes: also called B10G5-2; P2B10G5

EC50 [9]: 0.6 µg/mL
B2: h36B3GS (antibody, V domains shown)
VH: QVQLVQSGAEVKKPGASVKVSCKASGYAFTKYNFYWVRQAPGQGLEWIGYIDPYFGGTVYNQKFKGKATLTVDKSTSTAYMELRSLRSDDTAVYYCATTDSYSLFTYWGQGTLVTVSS
VL: DIQMTQSPSSLSASVGDRVTITCRASQDISNYLNWYQQTPGKAVKLLIYYTSRLHSGVPSRFSGSGSGTDYTLTISSLQPEDIATYFCLQGNTLPFTFGQGTKLEIK
notes: humanized #36 variant; the text writes h36B3(GS); copies: 2 + 2

EC50 [10]: 3.56 µg/mL
EC50 [11]: 2.08 µg/mL
EC50 [12]: 7.25 µg/mL
EC50 [13]: 4.09 µg/mL
Kd [1]: 0.425 nM
Kd [14]: 13.9 nM
Kd [2]: 1.39 nM
Kd [15]: 0.0956 nM
Kd [3]: 0.504 nM
Kd [4]: 0.262 nM
Kd [5]: 4.38 nM
Kd [6]: 5.02 nM
Kd [7]: 1.67 nM
Kd [8]: 23.2 nM
EC50 [16]: 1.71 µg/mL
Kd [17]: 0.486 nM
Kd [18]: 12.8 nM
Kd [19]: 0.313 nM
Kd [20]: 1 nM
B3: 13A9 (antibody, human IgG1, kappa, V domains shown)
VH: QVQLQQSGAELVRPGTSVKVSCKASGYAFTNYLIEWVKQRPGQGLEWIGAINPGSGATNYNEKFKDKARLTADKSSNTAYLQFSSLTSDDSAVYFCARFLGNYFDNWGQGATLTVSS
VL: DIQMTQSPASLSASVGETVTITCRASGNIHSYLAWYQQKQGKSPQLLVYYAETLADGVPSRFSGRGSGTQYSLKINSLQPEDFGSYFCQQFWTTPYTFGGGTKVEIKR

binding result [1]: no binding
binding result [2]: no binding
binding result [15]: no binding
binding result [3]: no binding
B4: CM33322 (antibody, human IgG1, kappa)
heavy: not shown
light: DIVMTQTPLSSPVTLGQPASISCRSSQSLVHRDGNTYLSWFLQRPGQAPRLLIYRISNRFSGVPDRFSGSGAGTDFTLKISRVEAEDVGVYYCMQATQIPNTFGQGTKLEIKRTVAAPSVFIFPPSDEQLKSGTASVVCLLNNFYPREAKVQWKVDNALQSGNSQESVTEQDSKDSTYSLSSTLTLSKADYEKHKVYACEVTHQGLSSPVTKSFNRGEC
